# Data taken from publication PMC5431922.
# Columns and labels:
# [1] = biological target: 20.8-kDa tegumental-allergen-like protein from Clonorchis sinensis (CsTAL3), full-length (aa 1-184) (Clonorchis sinensis); experiment: AUC; sedimentation velocity, 20 °C, 2.5 and 0.6 mg/mL, 50 x 10^3 rpm, interference optics, c(s) analysis; without CaCl2 and with 5 mM CaCl2
# [2] = biological target: 20.8-kDa tegumental-allergen-like protein from Clonorchis sinensis (CsTAL3), full-length (aa 1-184) (Clonorchis sinensis); experiment: SAXS; 20 °C, 20 mM Tris-HCl pH 7.5, 100 mM NaCl, without or with 5 mM CaCl2; 1.9 to 5.2 mg/mL; molecular mass estimated against standard proteins
substance,measurement,setting,value
"20.8-kDa tegumental-allergen-like protein from Clonorchis sinensis (CsTAL3), full-length (aa 1-184) (natural protein)",stoichiometry N,[1],2
same,stoichiometry N,[2],2
